The test has as its target T1, 6xHis-SAMHD1 wild-type (full-length, recombinant) (human, UniProt Q9Y3Z3 1-626).
T1 construct: SAMHD1, full-length, from pET14b-6xHis-SAMHD1 (gift from Dr. Baek Kim); with N-terminal His tag and linker region, calculated molecular weight 74 kDa; Tetramer only stated after preincubation with dGTP; also called recombinant SAMHD1; SAMHD1 WT protein; source: E. coli BL21 Rosetta, purified (His-Trap, Superdex 200 SEC); not shown: His6, N-terminal, kept
The test can be described thus: pull-down; GST-SIRT1 (193-741) pre-incubated with glutathione-agarose beads in 50 mM Tris-Cl pH 8, 150 mM NaCl, protease inhibitors, 1 h at 4 °C; recombinant SAMHD1 added for 2 h at 4 °C; blots with anti-SAMHD1 or anti-GST. The note with it: both partners purified.

Results on one molecule are retold here after publication PMC9640623, “SAMHD1 deacetylation by SIRT1 promotes DNA end resection by facilitating DNA binding at double-strand breaks” (Nature Communications, 2021).

T1 sequence (Q9Y3Z3 whole entry): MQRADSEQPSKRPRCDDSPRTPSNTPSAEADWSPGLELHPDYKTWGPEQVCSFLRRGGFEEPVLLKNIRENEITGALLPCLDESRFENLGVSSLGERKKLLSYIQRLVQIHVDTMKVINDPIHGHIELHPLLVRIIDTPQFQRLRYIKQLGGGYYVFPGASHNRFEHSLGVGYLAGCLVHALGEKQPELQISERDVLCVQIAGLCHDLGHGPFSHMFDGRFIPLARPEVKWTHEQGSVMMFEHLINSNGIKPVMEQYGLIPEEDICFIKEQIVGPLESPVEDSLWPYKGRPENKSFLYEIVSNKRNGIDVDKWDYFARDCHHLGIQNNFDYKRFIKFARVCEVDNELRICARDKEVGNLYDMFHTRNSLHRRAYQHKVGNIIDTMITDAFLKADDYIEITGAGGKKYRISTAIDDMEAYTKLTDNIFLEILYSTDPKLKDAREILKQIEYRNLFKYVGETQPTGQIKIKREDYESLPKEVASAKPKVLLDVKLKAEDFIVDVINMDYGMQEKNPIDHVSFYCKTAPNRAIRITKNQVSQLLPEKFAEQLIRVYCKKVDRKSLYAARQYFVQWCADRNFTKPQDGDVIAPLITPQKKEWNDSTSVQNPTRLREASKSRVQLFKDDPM

B1: GST-SIRT1 (containing amino acids 193-741 of SIRT1) (domain or fragment, UniProt Q96EB6 193-741, looked up)
chain: MIGTDPRTILKDLLPETIPPPELDDMTLWQIVINILSEPPKRKKRKDINTIEDAVKLLQECKKIIVLTGAGVSVSCGIPDFRSRDGIYARLAVDFPDLPDPQAMFDIEYFRKDPRPFFKFAKEIYPGQFQPSLCHKFIALSDKEGKLLRNYTQNIDTLEQVAGIQRIIQCHGSFATASCLICKYKVDCEAVRGDIFNQVVPRCPRCPADEPLAIMKPEIVFFGENLPEQFHRAMKYDKDEVDLLIVIGSSLKVRPVALIPSSIPHEVPQILINREPLPHLHFDVELLGDCDVIINELCHRLGGEYAKLCCNPVKLSEITEKPPRTQKELAYLSELPPTPLHVSEDSSSPERTSPPDSSVIVTLLDQAAKSNDDLDVSESKGCMEEKPQEVQTSRNVESIAEQMENPDLKNVGSSTGEKNERTSVAGTVRKCWPNRVAKEQISRRLDGNQYLFLPPNRYIFHGAEVYSDSEDDVLSSSSCGSNSDSGTCQSPSLEEPMEDESEIEEFYNGLEDEPDVPERAGGAGFGTDGDDQEAINEAISVKQEVTDMN
notes: SIRT1 amino acids 193-741, recombinant, lacking N-terminal amino acids 1-192; The results call it bacterially-purified; also called GST-SIRT1 (lacking N-terminal amino acids 1–192); source: bought: Active Motif # 31533
B1: the binding result is reported as “binds”.
